Data from patent CN116041520A (WUHAN ABCLONAL CO LTD, dated 2023).

Molecular target: T1, 重组Human CD63蛋白(Ala103-Val203) (Human, UniProt P08962 103-203)
T1 construct: Fragment 103-203 of human CD63 expressed in 293F cells from vector pBR322 and purified with imidazole elution; also called 重组CD63蛋白; 重组Human CD63成熟蛋白
T1 sequence: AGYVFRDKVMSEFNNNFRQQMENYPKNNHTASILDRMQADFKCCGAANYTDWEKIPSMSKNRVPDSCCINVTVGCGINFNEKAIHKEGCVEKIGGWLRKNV
Experiment: sandwich ELISA, 3C5 coated as capture antibody at 2 ug/mL, Human CD63 0-10 ng/mL, OD450

B1: 针对Human CD63的兔单克隆抗体3C5 (antibody, V domains shown)
VH: QEQLVESGGGLVQPEGSLTLTCTASGFTFSTAWMSWVRQAPGKGLEWIGIINTGGTGKTYYASWAKGRFTCSKTSSTTVTLQMTSLTAADTATYFCARETADFNLWGQGTLVTVSS
VL: DVVMTQTPSSTSEPVGGTVTINCQASESVYNNDDLAWLQQKPGQPPKVLIYSASKLASGVPSRFSGSGSGTQFTLTISGVQCDDAASYYCVGLFDGDYFAFGGGTEVVVKG
notes: Coated on the plate as capture antibody at 2 ug/mL; also called 捕获抗体
B1: binds.
